In patent publication US20040126860:

Target: purified complex of human cardiac RLC, human ventricular ELC and the β-myosin heavy chain light chain binding fragment (aa778-840), P10916
Sequence (P10916 2-166, chain 1 of 3): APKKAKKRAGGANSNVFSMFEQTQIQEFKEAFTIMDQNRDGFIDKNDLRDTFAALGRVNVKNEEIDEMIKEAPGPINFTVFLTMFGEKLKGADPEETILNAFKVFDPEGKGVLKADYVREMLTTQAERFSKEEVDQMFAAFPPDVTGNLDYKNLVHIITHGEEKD
Sequence (chain, as listed by the source, chain 2 of 3): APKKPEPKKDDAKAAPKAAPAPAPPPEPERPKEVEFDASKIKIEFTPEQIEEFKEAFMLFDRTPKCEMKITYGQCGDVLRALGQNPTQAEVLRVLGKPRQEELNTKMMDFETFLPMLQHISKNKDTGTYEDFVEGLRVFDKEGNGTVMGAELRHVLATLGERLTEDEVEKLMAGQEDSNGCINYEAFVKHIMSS
Sequence (chain, as listed by the source, chain 3 of 3): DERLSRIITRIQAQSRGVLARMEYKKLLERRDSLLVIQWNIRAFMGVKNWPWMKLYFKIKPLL

| Protein | K, (printed so; presumably Km) | Vmax (pmoles min^-1 ng^-1) |
| --- | --- | --- |
| mutant human cMLCK (ala 87 val, ala 95 glu), full length, with amino-terminal FLAG tag (protein) MATENGAVELGIQNPSTDKAPKGPTGERPLAAGKDPGPPDPKKAPDPPTLKKDAKAPASEKGDGTLAQPSTSSQGPKGEGDRGGGPVEGSAGPPEALPQQTATPETSVKKPKAEQGASGSQDPGKPRVGKKAAEGQAAARRGSPAFLHSPSCPAIISSSEKLLAKKPPSEASELTFEGVPMTHSPTDPRPAKAEEGKNILAESQKEVGEKTPGQAGQAKMQGDTSRGIEFQAVPSEKSEVGQALCLTAREEDCFQILDDCPPPPAPFPHRMVELRTGNVSSEFSMNSKEALGGGKFGAVCTCMEKATGLKLAAKVIKKQTPKDKEMVLLEIEVMNQLNHRNLIQLYAAIETPHEIVLFMEYIEGGELFERIVDEDYHLTEVDTMVFVRQICDGILFMHKMRVLHLDLKPENILCVNTTGHLVKIIDFGLARRYNPNEKLKVNFGTPEFLSPEVVNYDQISDKTDMWSMGVITYMLLSGLSPFLGDDDTETLNNVLSGNWYFDEETFEAVSDEAKDFVSNLIVKDQRARMNAAQCLAHPWLNNLAEKAKRCNRRLKSQILLKKYLMKRRWKKNFIAVSAANRFKKISSSGALMALGV | 17 µM | 216 |
| human cardiac myosin light chain kinase (cMLCK), full length, wild type, with amino-terminal FLAG tag (protein) MATENGAVELGIQNPSTDKAPKGPTGERPLAAGKDPGPPDPKKAPDPPTLKKDAKAPASEKGDGTLAQPSTSSQGPKGEGDRGGGPAEGSAGPPAALPQQTATPETSVKKPKAEQGASGSQDPGKPRVGKKAAEGQAAARRGSPAFLHSPSCPAIISSSEKLLAKKPPSEASELTFEGVPMTHSPTDPRPAKAEEGKNILAESQKEVGEKTPGQAGQAKMQGDTSRGIEFQAVPSEKSEVGQALCLTAREEDCFQILDDCPPPPAPFPHRMVELRTGNVSSEFSMNSKEALGGGKFGAVCTCMEKATGLKLAAKVIKKQTPKDKEMVLLEIEVMNQLNHRNLIQLYAAIETPHEIVLFMEYIEGGELFERIVDEDYHLTEVDTMVFVRQICDGILFMHKMRVLHLDLKPENILCVNTTGHLVKIIDFGLARRYNPNEKLKVNFGTPEFLSPEVVNYDQISDKTDMWSMGVITYMLLSGLSPFLGDDDTETLNNVLSGNWYFDEETFEAVSDEAKDFVSNLIVKDQRARMNAAQCLAHPWLNNLAEKAKRCNRRLKSQILLKKYLMKRRWKKNFIAVSAANRFKKISSSGALMALGV | 6 µM | 115 |
